Drawing on article PMC7033180, “An endocannabinoid catabolic enzyme FAAH and its paralogs in an early land plant reveal evolutionary and functional relationship with eukaryotic orthologs” (Scientific Reports, 2020), this text covers inhibition, Km and kcat for two molecules.

One data set has as its target T1, PpFAAH1 (Physcomitrium patens, UniProt A0A7I4CIU2).
T1 construct: full length cDNA in pDEST15 (GST tag), E. coli BL21(DE3), GST column, tag removal not mentioned; cloning primers translate to N-terminus MAQNKMR and C-terminus FYNILK; catalytic triad K202, S278, S302
T1 sequence (A0A7I4CIU2 1-601): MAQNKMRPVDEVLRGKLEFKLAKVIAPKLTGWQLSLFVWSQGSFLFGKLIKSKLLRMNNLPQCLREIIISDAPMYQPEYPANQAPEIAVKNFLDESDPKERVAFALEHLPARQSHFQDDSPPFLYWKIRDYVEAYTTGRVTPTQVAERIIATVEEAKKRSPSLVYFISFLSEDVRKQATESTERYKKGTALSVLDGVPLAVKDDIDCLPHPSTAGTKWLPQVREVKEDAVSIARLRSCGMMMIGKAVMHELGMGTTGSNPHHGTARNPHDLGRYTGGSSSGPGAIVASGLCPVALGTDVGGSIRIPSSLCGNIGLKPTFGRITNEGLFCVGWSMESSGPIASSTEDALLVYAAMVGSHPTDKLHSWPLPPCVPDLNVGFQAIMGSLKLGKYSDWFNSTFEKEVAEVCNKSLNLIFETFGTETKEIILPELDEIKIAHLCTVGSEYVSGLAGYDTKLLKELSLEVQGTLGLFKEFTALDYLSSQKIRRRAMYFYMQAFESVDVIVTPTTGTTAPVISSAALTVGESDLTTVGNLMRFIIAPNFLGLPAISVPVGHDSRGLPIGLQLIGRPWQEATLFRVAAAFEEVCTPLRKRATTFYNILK
Briefly: radiolabeled amidohydrolase assay, TLC with radiometric scanner, […] min preincubation with inhibitor. It counts as biochemical. The settings on record: read-out: % inhibition at 10 nM.

Substrate in data set [1]: CCCCC/C=C\C/C=C\C/C=C\C/C=C\CCCC(=O)NCCO
Briefly: radiolabeled amidohydrolase assay, TLC with radiometric scanner. The class given is biochemical, Physcomitrium patens. The settings on record: pH 8.0, 37 °C, labelled compound ([1-14C]). The protocol:
radiolabeled amidohydrolase assay, TLC with radiometric scanner on PpFAAH1 | The kinetic parameters, Km and Vmax for PpFAAH1 with anandamide as a substrate were determined

The inhibition is the relative decrease from the control value, in per cent. The Km is the substrate concentration at which the rate is half of its maximum.

`NC(=O)c1cccc(-c2cccc(OC(=O)NC3CCCCC3)c2)c1` [URB597, [3-(3-carbamoylphenyl)phenyl] N-cyclohexyl carbamate]: on PpFAAH1, the inhibition at 0.01 µM came out at 20%.

B1: PpFAAH1 (Physcomitrium patens) (protein)
chain: MAQNKMRPVDEVLRGKLEFKLAKVIAPKLTGWQLSLFVWSQGSFLFGKLIKSKLLRMNNLPQCLREIIISDAPMYQPEYPANQAPEIAVKNFLDESDPKERVAFALEHLPARQSHFQDDSPPFLYWKIRDYVEAYTTGRVTPTQVAERIIATVEEAKKRSPSLVYFISFLSEDVRKQATESTERYKKGTALSVLDGVPLAVKDDIDCLPHPSTAGTKWLPQVREVKEDAVSIARLRSCGMMMIGKAVMHELGMGTTGSNPHHGTARNPHDLGRYTGGSSSGPGAIVASGLCPVALGTDVGGSIRIPSSLCGNIGLKPTFGRITNEGLFCVGWSMESSGPIASSTEDALLVYAAMVGSHPTDKLHSWPLPPCVPDLNVGFQAIMGSLKLGKYSDWFNSTFEKEVAEVCNKSLNLIFETFGTETKEIILPELDEIKIAHLCTVGSEYVSGLAGYDTKLLKELSLEVQGTLGLFKEFTALDYLSSQKIRRRAMYFYMQAFESVDVIVTPTTGTTAPVISSAALTVGESDLTTVGNLMRFIIAPNFLGLPAISVPVGHDSRGLPIGLQLIGRPWQEATLFRVAAAFEEVCTPLRKRATTFYNILK
notes: full length cDNA in pDEST15 (GST tag), E. coli BL21(DE3), GST column, tag removal not mentioned; cloning primers translate to N-terminus MAQNKMR and C-terminus FYNILK; catalytic triad K202, S278, S302
Turning to B1, in data set [1], the Km amounted to 2.3 µM and the kcat amounted to 1.4 S^−1.
